Values of other authors, collected in paper PMC7019049.

Tests used:
[1] = target: MIG6 peptide (Homo sapiens) (UniProt Q9UJM3)
[2] = target: pepJIP1 (Homo sapiens) (UniProt Q9UQF2)
Sequence of UniProt Q9UQF2 (Q9UQF2 whole entry): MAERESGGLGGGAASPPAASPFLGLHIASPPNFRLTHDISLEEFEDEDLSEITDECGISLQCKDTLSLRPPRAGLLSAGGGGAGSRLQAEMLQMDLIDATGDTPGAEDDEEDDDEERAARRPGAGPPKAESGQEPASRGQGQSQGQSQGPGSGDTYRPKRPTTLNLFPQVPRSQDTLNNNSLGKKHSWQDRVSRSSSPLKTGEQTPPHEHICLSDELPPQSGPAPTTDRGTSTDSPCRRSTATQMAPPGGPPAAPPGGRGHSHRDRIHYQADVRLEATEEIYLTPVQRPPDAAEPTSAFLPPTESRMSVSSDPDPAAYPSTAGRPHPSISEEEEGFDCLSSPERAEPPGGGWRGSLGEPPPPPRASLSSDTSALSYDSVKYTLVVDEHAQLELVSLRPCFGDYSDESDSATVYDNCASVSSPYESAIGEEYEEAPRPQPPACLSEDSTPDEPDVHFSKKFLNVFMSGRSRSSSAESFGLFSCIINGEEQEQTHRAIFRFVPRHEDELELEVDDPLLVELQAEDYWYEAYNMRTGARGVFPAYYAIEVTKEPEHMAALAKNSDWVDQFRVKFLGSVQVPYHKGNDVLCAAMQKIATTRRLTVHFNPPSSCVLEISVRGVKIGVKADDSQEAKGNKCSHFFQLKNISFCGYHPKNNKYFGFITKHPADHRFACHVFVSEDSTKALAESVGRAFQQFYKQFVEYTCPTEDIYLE

Sequence of UniProt Q9UJM3 (Q9UJM3 2-462): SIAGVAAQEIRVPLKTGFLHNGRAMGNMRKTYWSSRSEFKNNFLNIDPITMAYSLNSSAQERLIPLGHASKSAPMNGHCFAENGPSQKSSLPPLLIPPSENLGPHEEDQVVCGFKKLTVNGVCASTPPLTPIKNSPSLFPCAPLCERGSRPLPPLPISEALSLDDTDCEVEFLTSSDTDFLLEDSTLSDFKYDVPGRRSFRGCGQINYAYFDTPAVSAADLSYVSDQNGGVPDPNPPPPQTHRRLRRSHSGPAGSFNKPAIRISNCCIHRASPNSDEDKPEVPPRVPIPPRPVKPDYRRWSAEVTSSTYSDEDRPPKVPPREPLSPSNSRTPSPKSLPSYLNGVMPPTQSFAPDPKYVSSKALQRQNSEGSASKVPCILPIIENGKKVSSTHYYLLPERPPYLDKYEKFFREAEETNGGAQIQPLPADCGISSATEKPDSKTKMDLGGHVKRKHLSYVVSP

| Substance | Kd [1] [µM] | Kd [2] [µM] |
| --- | --- | --- |
| EGFR kinase domain (from UniProt P00533) | 13 | – |
| MAPK8 (JNK1) (from UniProt P45983) | – | 0.42 |
